This note sets out measurements from patent US20180201655A1 (University of California, published 2018).

Data set [1] deals with the molecule itself. Put plainly: native PAGE, self-association (homodimer). From the text:
(§1) FIG. 9A-FIG. 9C: Quaternary structure characterization of smURFP and TDsmURFP. (A) Native PAGE gel of APCαFPs. Monomeric IFP1.4 (36.5 kD) was ran as a reference. R4-1 runs as a tetramer, while R10-10 and smURFP run as a homodimer (32 kD). (B) Native PAGE gel of TDsmURFP. Monomeric IFP1.4 (36.5 kD) and tandem dimer Tomato (tdTomato, 54.2 kD) were ran as references. TDsmURFP (32.9 kD) runs slightly higher than smURFP due to 23 amino acid linker. (C) SDS denaturing PAGE gel of smURFP and TDsmURFP. BV was imaged by addition of zinc. All FPs show correct MW and covalently attached BV. […] (A-C) Each FP was run on two lanes. EX is excitation maximum and EM is emission maximum.
(§2) smURFP ran as a 32-kD homodimer on a native gel. R10-10 ran as a32-kD homodimer, while R4-1 was atetramer (FIG. 9a). Tandem dimer smURFP (TDsmURFP) was created by adding a 23-amino-acid linker between subunits and had ˜70% fluorescence of smURFP in bacteria (FIG. 2c). TDsmURFP (33 kD) ran near smURFP. tdTomato (54 kD) and IFP1.4 (37 kD) confirmed the dimeric nature of smURFP (FIG. 9a,b). To confirm covalent BV attachment, the FPs were run on a denaturing gel, and BV was detected with zinc²⁵. […] C52 is evolutionarily conserved among all APCαs and covalently attaches PCB (FIGS. 6 and 10a). The C52S mutation eliminated smURFP fluorescence (FIG. 10b,c), and C52 remains the BV attachment site. […]

Data set [2] concerns the molecule itself. Put plainly: stoichiometry column of the table of biophysical properties (self-association).
Data set [3] concerns the molecule itself. In words: native PAGE, self-association (tetramer).
Text: as §1, §2

Numbering of substitutions follows the chain as printed.

B1: R10-10 (other)
chain: MKTCEQRVNIATLLTENKKKIVDKASQDLWRRHPDLIAPGGIAFSQRDRALCLRDYGWYLHLITFCLLAGDKGPIESIGLIGIREMYNSLGVPVPAMMESIRCLKEASLSLLDEEDANETAPYFDYIIKAMS
modifications: biliverdin (BV) covalently attached
notes: Evolved APCα fluorescent protein of round 10; runs as a homodimer on native PAGE; also called R10-10+BV; not shown: polyhistidine tag on the C terminus
Regarding B1, the binding result in data set [1] is on record as “binds”.

B2: smURFP + BVMe2 (other)
chain: B1 chain with C4S, Y59F, G82S
modifications: biliverdin dimethyl ester (BVMe2) attached, a single BVMe2 per homodimer
notes: smURFP purified without chromophore, BVMe2 added in vitro; detected by mass spectrometry as the homodimer + BVMe2; also called smURFP+1BVMe2; not shown: polyhistidine tag on the C terminus
Turning to B2, in data set [2], the binding result is reported as “binds”.

B3: small ultra-red fluorescent protein (smURFP) + BV (other)
chain: B1 chain with C4S, Y59F, G82S
modifications: biliverdin (BV) covalently attached at C52; predominant species has one BV per homodimer
notes: purified from E. coli co-expressing HO-1; runs as a homodimer on native PAGE; not shown: polyhistidine tag on the C terminus
B3: in data set [2], the binding result is on record as “binds”.

B4: R4-1 (other)
chain: MKTGEQRVKIATLLSENEKKIVDKASQDLWRRRPDFIAPGGIAFSQRERALCLRDYRWYLHLITFCLLAGDKDPIESIGLIGIREMYNSLGVPVPGMMESIRCLKEASLSLLDEEDAKETAPYFDYIIKAMS
modifications: biliverdin (BV) covalently attached
notes: Evolved APCα fluorescent protein of round 4; runs as a tetramer on native PAGE; also called R4-1+BV; not shown: polyhistidine tag on the C terminus
Turning to B4, the binding result in data set [3] is “binds”.
